Measured values reported in IntAct's records for PubMed 23824069.

B1: Phosphatidylinositol 4,5-bisphosphate 3-kinase catalytic subunit gamma isoform (Homo sapiens), P48736 (parent)
chain: MELENYKQPVVLREDNCRRRRRMKPRSAAASLSSMELIPIEFVLPTSQRKCKSPETALLHVAGHGNVEQMKAQVWLRALETSVAADFYHRLGPHHFLLLYQKKGQWYEIYDKYQVVQTLDCLRYWKATHRSPGQIHLVQRHPPSEESQAFQRQLTALIGYDVTDVSNVHDDELEFTRRGLVTPRMAEVASRDPKLYAMHPWVTSKPLPEYLWKKIANNCIFIVIHRSTTSQTIKVSPDDTPGAILQSFFTKMAKKKSLMDIPESQSEQDFVLRVCGRDEYLVGETPIKNFQWVRHCLKNGEEIHVVLDTPPDPALDEVRKEEWPLVDDCTGVTGYHEQLTIHGKDHESVFTVSLWDCDRKFRVKIRGIDIPVLPRNTDLTVFVEANIQHGQQVLCQRRTSPKPFTEEVLWNVWLEFSIKIKDLPKGALLNLQIYCGKAPALSSKASAESPSSESKGKVQLLYYVNLLLIDHRFLLRRGEYVLHMWQISGKGEDQGSFNADKLTSATNPDKENSMSISILLDNYCHPIALPKHQPTPDPEGDRVRAEMPNQLRKQLEAIIATDPLNPLTAEDKELLWHFRYESLKHPKAYPKLFSSVKWGQQEIVAKTYQLLARREVWDQSALDVGLTMQLLDCNFSDENVRAIAVQKLESLEDDDVLHYLLQLVQAVKFEPYHDSALARFLLKRGLRNKRIGHFLFWFLRSEIAQSRHYQQRFAVILEAYLRGCGTAMLHDFTQQVQVIEMLQKVTLDIKSLSAEKYDVSSQVISQLKQKLENLQNSQLPESFRVPYDPGLKAGALAIEKCKVMASKKKPLWLEFKCADPTALSNETIGIIFKHGDDLRQDMLILQILRIMESIWETESLDLCLLPYGCISTGDKIGMIEIVKDATTIAKIQQSTVGNTGAFKDEVLNHWLKEKSPTEEKFQAAVERFVYSCAGYCVATFVLGIGDRHNDNIMITETGNLFHIDFGHILGNYKSFLGINKERVPFVLTPDFLFVMGTSGKKTSPHFQKFQDICVKAYLALRHHTNLLIILFSMMLMTGMPQLTSKEDIEYIRDALTVGKNEEDAKKYFLDQIEVCRDKGWTVQFNWFLHLVLGIKQGEKHSA
partner: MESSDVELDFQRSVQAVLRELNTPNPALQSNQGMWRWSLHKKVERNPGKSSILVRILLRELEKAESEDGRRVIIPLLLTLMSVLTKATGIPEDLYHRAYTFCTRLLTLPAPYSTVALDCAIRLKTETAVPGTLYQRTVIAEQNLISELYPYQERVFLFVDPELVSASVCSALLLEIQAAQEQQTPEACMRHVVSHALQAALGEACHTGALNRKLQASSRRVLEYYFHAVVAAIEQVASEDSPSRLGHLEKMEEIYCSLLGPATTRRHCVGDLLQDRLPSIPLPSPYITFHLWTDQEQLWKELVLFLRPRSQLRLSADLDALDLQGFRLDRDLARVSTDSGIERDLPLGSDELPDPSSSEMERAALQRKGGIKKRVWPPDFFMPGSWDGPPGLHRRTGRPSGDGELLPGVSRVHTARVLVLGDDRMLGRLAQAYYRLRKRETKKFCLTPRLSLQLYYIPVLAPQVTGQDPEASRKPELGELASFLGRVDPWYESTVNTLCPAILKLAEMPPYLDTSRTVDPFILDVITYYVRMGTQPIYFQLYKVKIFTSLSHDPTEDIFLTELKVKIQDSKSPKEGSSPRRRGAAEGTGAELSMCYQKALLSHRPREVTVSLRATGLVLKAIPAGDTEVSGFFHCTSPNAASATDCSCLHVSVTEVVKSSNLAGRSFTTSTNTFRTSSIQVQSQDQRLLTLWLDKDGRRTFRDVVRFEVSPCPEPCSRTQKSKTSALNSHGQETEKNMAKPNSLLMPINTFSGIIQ

Variants of: B1
Settings: with pi3r6_mouse Pik3r6, Q3U6Q4

Variant	effect of a mutation on the interaction
S582D	decreasing interaction strength
S582E	decreasing interaction strength
